# Patent publication US20250145710A1 (published 2025)
# Positions count from the first letter of the chain named.
# T1: human CLDN6 (human, UniProt P56747 1-220)
# T1 chain: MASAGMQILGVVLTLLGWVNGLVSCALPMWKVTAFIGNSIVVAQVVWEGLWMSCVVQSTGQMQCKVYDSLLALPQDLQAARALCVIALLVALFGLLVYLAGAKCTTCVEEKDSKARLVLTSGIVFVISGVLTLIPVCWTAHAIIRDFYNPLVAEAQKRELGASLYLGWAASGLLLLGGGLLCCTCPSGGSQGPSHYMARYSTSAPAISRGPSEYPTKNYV
# B1: IMC-2-7 tandem scFv antibody (bispecific antibody)
# scFv: SYELTQPPSVSVSPGQTARITCSAGSGLYGWYQQKPGQAPVLVIYGTNKRPSGIPERFSGSSSGTTVTLTISGVQAEDEADYYCGSADSSTNAGIFGGGTKLTVLGGGGSGGGGSGGGGSEVQLLESGGGLVQPGGSLRLSCAASGFTFSSYAMNWVRQAPGKGLEWVAGISSSGRYTGYADSVKGRFTISRDNSKNTLYLQMNSLRAEDTAVYYCAKSVGSGVSWSGYVATSLDAWGQGTLVTVSSGGGGSEVQLVESGGGLVQPGGSLRLSCAASGFTFSTYAMNWVRQAPGKGLEWVGRIRSKYNNYATYYADSVKGRFTISRDDSKNTLYLQMNSLRAEDTAVYYCVRHGNFGDSYVSWFAYWGQGTLVTVSSGKPGSGKPGSGKPGSGKPGSQAVVTQEPSLTVSPGGTVTLTCGSSTGAVTTSNYANWVQQKPGKSPRGLIGGTNKRAPGVPARFSGSLLGGKAALTISGAQPEDEADYYCALWYSNHWVFGGGTKLTVL
# B2: IMC-21-1 IgG-(scFv)2 antibody (bispecific antibody)
# heavy: not shown
# light: SYELTQPPSVSVSPGQTARITCSAGSGLYGWYQQKPGQAPVLVIYGTNKRPSGIPERFSGSSSGTTVTLTISGVQAEDEADYYCGSADSSTNAGIFGGGTKLTVLGQPKAAPSVTLFPPSSEELQANKATLVCLISDFYPGAVTVAWKADSSPVKAGVETTTPSKQSNNKYAASSYLSLTPEQWKSHRSYSCQVTHEGSTVEKTVAPTECS
# B3: IMC-16-3 scFv-Fab IgG antibody (bispecific antibody)
# heavy: EVQLLESGGGLVQPGGSLRLSCAASGFTFSSYAMNWVRQAPGKGLEWVAGISSSGRYTGYADSVKGRFTISRDNSKNTLYLQMNSLRAEDTAVYYCAKSVGSGVSWSGYVATSLDAWGQGTLVTVSSASTKGPSVFPLAPSSKSTSGGTAALGCLVKDYFPEPVTVSWNSGALTSGVHTFPAVLQSSGLYSLSSVVTVPSSSLGTQTYICNVNHKPSNTKVDKKVEPKSCDKTHTCPPCPAPEAAGGPSVFLFPPKPKDTLMISRTPEVTCVVVDVSHEDPEVKFNWYVDGVEVHNAKTKPREEQYNSTYRVVSVLTVLHQDWLNGKEYKCKVSNKALPAPIEKTISKAKGQPREPQVYTLPPSREEMTKNQVSLWCLVKGFYPSDIAVEWESNGQPENNYKTTPPVLDSDGSFFLYSKLTVDKSRWQQGNVFSCSVMHEALHNHYTQKSLSLSPGK
# light: B2 light
# scFv: EVQLVESGGGLVQPGGSLRLSCAASGFTFSTYAMNWVRQAPGKGLEWVGRIRSKYNNYATYYADSVKGRFTISRDDSKNTLYLQMNSLRAEDTAVYYCVRHGNFGDSYVSWFAYWGQGTLVTVSSGKPGSGKPGSGKPGSGKPGSQAVVTQEPSLTVSPGGTVTLTCGSSTGAVTTSNYANWVQQKPGKSPRGLIGGTNKRAPGVPARFSGSLLGGKAALTISGAQPEDEADYYCALWYSNHWVFGGGTKLTVLASPKSSDKTHTCPPCPAPEAAGGPSVFLFPPKPKDTLMISRTPEVTCVVVDVSHEDPEVKFNWYVDGVEVHNAKTKPREEQYNSTYRVVSVLTVLHQDWLNGKEYKCKVSNKALPAPIEKTISKAKGQPREPQVYTLPPSREEMTKNQVSLSCAVKGFYPSDIAVEWESNGQPENNYKTTPPVLDSDGSFFLVSKLTVDKSRWQQGNVFSCSVMHEALHNHYTQKSLSLSPGK
# B4: IMC-16-15 scFv-Fab IgG antibody (bispecific antibody)
# heavy: B3 heavy with V100M, L114I, A116V
# light: B2 light
# scFv: B3 scFv
# Molecular target: T1, human CLDN6
# Experiment: flow cytometry cell binding
row,EC50 [nM],Binder
1,40.5,B1
2,7.2,B2
3,13.7,B3
4,24.1,B4

# Molecular target: human CD3 (UniProt P07766 23-207; P04234 22-171; P09693 23-182)
# Experiment: flow cytometry cell binding
# Sequence of human CD3 (P07766 23-207, chain 1 of 3): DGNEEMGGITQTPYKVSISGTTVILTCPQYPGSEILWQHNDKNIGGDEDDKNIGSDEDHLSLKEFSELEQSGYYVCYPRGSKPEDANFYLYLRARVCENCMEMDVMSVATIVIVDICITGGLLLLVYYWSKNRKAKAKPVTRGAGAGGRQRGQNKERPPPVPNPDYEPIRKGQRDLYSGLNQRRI
# Sequence of human CD3 (P04234 22-171, chain 2 of 3): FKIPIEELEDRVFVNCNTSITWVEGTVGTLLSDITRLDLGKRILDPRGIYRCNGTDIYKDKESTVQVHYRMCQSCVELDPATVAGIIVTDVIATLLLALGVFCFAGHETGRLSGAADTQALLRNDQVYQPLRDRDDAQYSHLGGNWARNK
# Sequence of human CD3 (P09693 23-182, chain 3 of 3): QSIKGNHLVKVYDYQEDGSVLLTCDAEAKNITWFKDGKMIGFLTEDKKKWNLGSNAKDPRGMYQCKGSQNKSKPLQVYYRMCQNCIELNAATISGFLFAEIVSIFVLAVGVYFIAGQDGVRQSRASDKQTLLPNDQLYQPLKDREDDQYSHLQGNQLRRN
row,EC50 [nM],Binder
1,7.3,B1
2,53.6,B2
3,3.46,B3
4,2.62,B4
